What was measured:
[1] = system: VP35 IID (Zaire ebolavirus); assay: ITC; details: not given in the material (Methods absent)
[2] = system: VP35 IID (Zaire ebolavirus); assay: NMR; details: 5'ppp; not given in the material (Methods absent)
[3] = system: VP35 IID (Zaire ebolavirus); assay: NMR competition; details: 5'ppp; not given in the material (Methods absent)

Substance | Kd [1] | binding signal (relative HSQC peak intensity) [2] | binding signal (relative HSQC peak intensity) [3]
8 bp dsRNA | 500 nM |  | 
IVT-8 bp dsRNA |  | 0.36 | 0.42
